# B1: EGF: positive control group: 50 U/mL of EGF in the cell scratch assay (protein, UniProt P01133 23-1207, looked up)
# Pro-epidermal growth factor: PQHWSCPEGTLAGNGNSTCVGPAPFLIFSHGNSIFRIDTEGTNYEQLVVDAGVSVIMDFHYNEKRIYWVDLERQLLQRVFLNGSRQERVCNIEKNVSGMAINWINEEVIWSNQQEGIITVTDMKGNNSHILLSALKYPANVAVDPVERFIFWSSEVAGSLYRADLDGVGVKALLETSEKITAVSLDVLDKRLFWIQYNREGSNSLICSCDYDGGSVHISKHPTQHNLFAMSLFGDRIFYSTWKMKTIWIANKHTGKDMVRINLHSSFVPLGELKVVHPLAQPKAEDDTWEPEQKLCKLRKGNCSSTVCGQDLQSHLCMCAEGYALSRDRKYCEDVNECAFWNHGCTLGCKNTPGSYYCTCPVGFVLLPDGKRCHQLVSCPRNVSECSHDCVLTSEGPLCFCPEGSVLERDGKTCSGCSSPDNGGCSQLCVPLSPVSWECDCFPGYDLQLDEKSCAASGPQPFLLFANSQDIRHMHFDGTDYGTLLSQQMGMVYALDHDPVENKIYFAHTALKWIERANMDGSQRERLIEEGVDVPEGLAVDWIGRRFYWTDRGKSLIGRSDLNGKRSKIITKENISQPRGIAVHPMAKRLFWTDTGINPRIESSSLQGLGRLVIASSDLIWPSGITIDFLTDKLYWCDAKQSVIEMANLDGSKRRRLTQNDVGHPFAVAVFEDYVWFSDWAMPSVMRVNKRTGKDRVRLQGSMLKPSSLVVVHPLAKPGADPCLYQNGGCEHICKKRLGTAWCSCREGFMKASDGKTCLALDGHQLLAGGEVDLKNQVTPLDILSKTRVSEDNITESQHMLVAEIMVSDQDDCAPVGCSMYARCISEGEDATCQCLKGFAGDGKLCSDIDECEMGVPVCPPASSKCINTEGGYVCRCSEGYQGDGIHCLDIDECQLGEHSCGENASCTNTEGGYTCMCAGRLSEPGLICPDSTPPPHLREDDHHYSVRNSDSECPLSHDGYCLHDGVCMYIEALDKYACNCVVGYIGERCQYRDLKWWELRHAGHGQQQKVIVVAVCVVVLVMLLLLSLWGAHYYRTQKLLSKNPKNPYEESSRDVRSRRPADTEDGMSSCPQPWFVVIKEHQDLKNGGQPVAGEDGQAADGSMQPTSWRQEPQLCGMGTEQGCWIPVSSDKGSCPQVMERSFHMPSYGTQTLEGGVEKPHSLLSANPLWQQRALDPPHQMELTQ
# modifications: Pro-epidermal growth factor
# notes: positive control group: 50 U/mL of EGF in the cell scratch assay
# Test system: Human keratinocytes (HaCaT)
# Experiment: Cell scratch assay
# Assay type: cell-based
# Details: 24 h after scratch, peptides 12.5 ppm, EGF 50 U/mL, compared with blank control, FIG. 8
# Procedure: Human keratinocytes (HaCaT) were purchased from the Kunming Cell Bank of China Center for Type Culture Collection under the Chinese Academy of Sciences.
# Polypeptide group: Peptide (13) and peptide (20). The test concentrations of all the above samples were 12.5 ppm.
# Blank control group: PBS.
# Positive control group: 50 U/mL of EGF.
# A bottle of HaCaT cells in good exponential growth phase was taken. A 0.25% trypsin digestion solution was added so that digestion allowed the adherent cells to fall off, counting 1 to 4×10^5 cells/mL, which were prepared into a cell suspension.
# The cells were inoculated into a 24-well plate at a density of 150,000 cells/well, with 2 mL cell suspension per well. After the cells attached to the wall and grew to 100% confluence, the culture medium was replaced with a medium containing 0.5%-1% fetal bovine serum to maintain the cells for 24 h for synchronization. A sterilized pipette tip was used to scratch a wound, the detached cells were washed off with PBS, and the samples to be tested were added. The incubation was continued in the 5% CO2 incubator at 37° C., and the migration of cells was observed under an optical microscope after 24 h.
# The scratch migration experiment of cells can reflect the proliferation and repair ability of cells. […]
molecule,measurement,value
B1,cell proliferation and migration (scratch spacing),obvious cell proliferation and migration

# Source: patent publication US20260049103A1, “PEPTIDE, AND COMPOSITION THEREOF AND USE THEREOF” (WINKEY TECHNOLOGY USA INC, priority 2023, published 2026)
